This is an account of results in patent US20180016354A1 (Merck KGaA, published 2018).

First the molecules themselves.
B1: one-armed anti-EGFR SEED antibody with Charge pair CH3 domain-exchanged Fab, Variant 2 (antibody)
heavy: QVQLVQSGAEVKKPGASVKVSCKASGYTFTSHWMHWVRQAPGQGLEWIGEFNPSNGRTNYNEKFKSKATMTVDTSTNTAYMELSSLRSEDTAVYYCASRDYDYDGRYFDYWGQGTLVTVSSASTKGEPQVYTLPPSREEMTKNQVSLTCLVKGFYPSDIAVEWESNGQPENNYDTTPPVLDSDGSFFLYSDLTVDKSRWQQGNVFSCSVMHEALHNHYTQKSLSLSKSCDKTHTCPPCPAPELLGGPSVFLFPPKPKDTLMISRTPEVTCVVVDVSHEDPEVKFNWYVDGVEVHNAKTKPREEQYNSTYRVVSVLTVLHQDWLNGKEYKCKVSNKALPAPIEKTISKAKGQPFRPEVHLLPPSREEMTKNQVSLTCLARGFYPKDIAVEWESNGQPENNYKTTPSRQEPSQGTTTFAVTSKLTVDKSRWQQGNVFSCSVMHEALHNHYTQKTISLSPGK
light: DIQMTQSPSSLSASVGDRVTITCSASSSVTYMYWYQQKPGKAPKLLIYDTSNLASGVPSRFSGSGSGTDYTFTISSLQPEDIATYYCQQWSSHIFTFGQGTKVEIKRTVAEPQVYTLPPSRKEMTKNQVSLTCLVKGFYPSDIAVEWESNGQPENNYKTTPPVLKSDGSFFLYSKLTVDKSRWQQGNVFSCSVMHEALHNHYTQKSLSLSGEC
chain: EPKSSDKTHTCPPCPAPELLGGPSVFLFPPKPKDTLMISRTPEVTCVVVDVSHEDPEVKFNWYVDGVEVHNAKTKPREEQYNSTYRVVSVLTVLHQDWLNGKEYKCKVSNKALPAPIEKTISKAKGQPREPQVYTLPPPSEELALNELVTLTCLVKGFYPSDIAVEWLQGSQELPREKYLTWAPVLDSDGSFFLYSILRVAAEDWKKGDTFSCSVMHEALHNHYTQKSLDRSPGK
notes: hu425 Fv; one Fab arm only; also called Charge pair variant 2
B2: one-armed anti-EGFR SEED antibody with SEED CH3 domain-exchanged Fab, Variant 2 (antibody)
heavy: QVQLVQSGAEVKKPGASVKVSCKASGYTFTSHWMHWVRQAPGQGLEWIGEFNPSNGRTNYNEKFKSKATMTVDTSTNTAYMELSSLRSEDTAVYYCASRDYDYDGRYFDYWGQGTLVTVSSASTKGEPQVYTLPPPSEELALNELVTLTCLVKGFYPSDIAVEWLQGSQELPREKYLTWAPVLDSDGSFFLYSILRVAAEDWKKGDTFSCSVMHEALHNHYTQKSLDRSKSCDKTHTCPPCPAPELLGGPSVFLFPPKPKDTLMISRTPEVTCVVVDVSHEDPEVKFNWYVDGVEVHNAKTKPREEQYNSTYRVVSVLTVLHQDWLNGKEYKCKVSNKALPAPIEKTISKAKGQPFRPEVHLLPPSREEMTKNQVSLTCLARGFYPKDIAVEWESNGQPENNYKTTPSRQEPSQGTTTFAVTSKLTVDKSRWQQGNVFSCSVMHEALHNHYTQKTISLSPGK
light: DIQMTQSPSSLSASVGDRVTITCSASSSVTYMYWYQQKPGKAPKLLIYDTSNLASGVPSRFSGSGSGTDYTFTISSLQPEDIATYYCQQWSSHIFTFGQGTKVEIKRTVAPEVHLLPPSREEMTKNQVSLTCLARGFYPKDIAVEWESNGQPENNYKTTPSRQEPSQGTTTFAVTSKLTVDKSRWQQGNVFSCSVMHEALHNHYTQKTISLSGEC
chain: EPKSSDKTHTCPPCPAPELLGGPSVFLFPPKPKDTLMISRTPEVTCVVVDVSHEDPEVKFNWYVDGVEVHNAKTKPREEQYNSTYRVVSVLTVLHQDWLNGKEYKCKVSNKALPAPIEKTISKAKGQPREPQVYTLPPPSEELALNELVTLTCLVKGFYPSDIAVEWLQGSQELPREKYLTWAPVLDSDGSFFLYSILRVAAEDWKKGDTFSCSVMHEALHNHYTQKSLDRSPGK
notes: hu425 Fv; one Fab arm only; also called CH3-SEED variant 2
B3: one-armed anti-EGFR SEED antibody with SEED CH3 domain-exchanged Fab, Variant 1 (antibody)
heavy: QVQLVQSGAEVKKPGASVKVSCKASGYTFTSHWMHWVRQAPGQGLEWIGEFNPSNGRTNYNEKFKSKATMTVDTSTNTAYMELSSLRSEDTAVYYCASRDYDYDGRYFDYWGQGTLVTVSSASTKGPEVHLLPPSREEMTKNQVSLTCLARGFYPKDIAVEWESNGQPENNYKTTPSRQEPSQGTTTFAVTSKLTVDKSRWQQGNVFSCSVMHEALHNHYTQKTISLSKSCDKTHTCPPCPAPELLGGPSVFLFPPKPKDTLMISRTPEVTCVVVDVSHEDPEVKFNWYVDGVEVHNAKTKPREEQYNSTYRVVSVLTVLHQDWLNGKEYKCKVSNKALPAPIEKTISKAKGQPFRPEVHLLPPSREEMTKNQVSLTCLARGFYPKDIAVEWESNGQPENNYKTTPSRQEPSQGTTTFAVTSKLTVDKSRWQQGNVFSCSVMHEALHNHYTQKTISLSPGK
light: DIQMTQSPSSLSASVGDRVTITCSASSSVTYMYWYQQKPGKAPKLLIYDTSNLASGVPSRFSGSGSGTDYTFTISSLQPEDIATYYCQQWSSHIFTFGQGTKVEIKRTVAEPQVYTLPPPSEELALNELVTLTCLVKGFYPSDIAVEWLQGSQELPREKYLTWAPVLDSDGSFFLYSILRVAAEDWKKGDTFSCSVMHEALHNHYTQKSLDRSGEC
chain: EPKSSDKTHTCPPCPAPELLGGPSVFLFPPKPKDTLMISRTPEVTCVVVDVSHEDPEVKFNWYVDGVEVHNAKTKPREEQYNSTYRVVSVLTVLHQDWLNGKEYKCKVSNKALPAPIEKTISKAKGQPREPQVYTLPPPSEELALNELVTLTCLVKGFYPSDIAVEWLQGSQELPREKYLTWAPVLDSDGSFFLYSILRVAAEDWKKGDTFSCSVMHEALHNHYTQKSLDRSPGK
notes: hu425 Fv; one Fab arm only; also called CH3-SEED variant 1
B4: Unengineered one-armed anti-EGFR antibody (CH1/CL hu425 Fab on SEED AG heavy chain, with huFc_GA SEED) (antibody)
heavy: QVQLVQSGAEVKKPGASVKVSCKASGYTFTSHWMHWVRQAPGQGLEWIGEFNPSNGRTNYNEKFKSKATMTVDTSTNTAYMELSSLRSEDTAVYYCASRDYDYDGRYFDYWGQGTLVTVSSASTKGPSVFPLAPSSKSTSGGTAALGCLVKDYFPEPVTVSWNSGALTSGVHTFPAVLQSSGLYSLSSVVTVPSSSLGTQTYICNVNHKPSNTKVDKKVEPKSCDKTHTCPPCPAPELLGGPSVFLFPPKPKDTLMISRTPEVTCVVVDVSHEDPEVKFNWYVDGVEVHNAKTKPREEQYNSTYRVVSVLTVLHQDWLNGKEYKCKVSNKALPAPIEKTISKAKGQPFRPEVHLLPPSREEMTKNQVSLTCLARGFYPKDIAVEWESNGQPENNYKTTPSRQEPSQGTTTFAVTSKLTVDKSRWQQGNVFSCSVMHEALHNHYTQKTISLSPGK
chain: EPKSSDKTHTCPPCPAPELLGGPSVFLFPPKPKDTLMISRTPEVTCVVVDVSHEDPEVKFNWYVDGVEVHNAKTKPREEQYNSTYRVVSVLTVLHQDWLNGKEYKCKVSNKALPAPIEKTISKAKGQPREPQVYTLPPPSEELALNELVTLTCLVKGFYPSDIAVEWLQGSQELPREKYLTWAPVLDSDGSFFLYSILRVAAEDWKKGDTFSCSVMHEALHNHYTQKSLDRSPGK
light: DIQMTQSPSSLSASVGDRVTITCSASSSVTYMYWYQQKPGKAPKLLIYDTSNLASGVPSRFSGSGSGTDYTFTISSLQPEDIATYYCQQWSSHIFTFGQGTKVEIKRTVAAPSVFIFPPSDEQLKSGTASVVCLLNNFYPREAKVQWKVDNALQSGNSQESVTEQDSKDSTYSLSSTLTLSKADYEKHKVYACEVTHQGLSSPVTKSFNRGEC
notes: One Fab arm only (monovalent); also called unengineered Fab one-armed anti-EGFR; control antibody
B5: one-armed anti-EGFR SEED antibody with KiH2 CH3 domain-exchanged Fab, Variant 1 (antibody)
heavy: QVQLVQSGAEVKKPGASVKVSCKASGYTFTSHWMHWVRQAPGQGLEWIGEFNPSNGRTNYNEKFKSKATMTVDTSTNTAYMELSSLRSEDTAVYYCASRDYDYDGRYFDYWGQGTLVTVSSASTKGEPQVYTLPPSRDELTKNQVSLWCLVKGFYPSDIAVEWESNGQPENNYKTTPPVLDSDGSFFLYSKLTVDKSRWQQGNVFSCSVMHEALHNHYTQKSLSLSKSCDKTHTCPPCPAPELLGGPSVFLFPPKPKDTLMISRTPEVTCVVVDVSHEDPEVKFNWYVDGVEVHNAKTKPREEQYNSTYRVVSVLTVLHQDWLNGKEYKCKVSNKALPAPIEKTISKAKGQPFRPEVHLLPPSREEMTKNQVSLTCLARGFYPKDIAVEWESNGQPENNYKTTPSRQEPSQGTTTFAVTSKLTVDKSRWQQGNVFSCSVMHEALHNHYTQKTISLSPGK
light: DIQMTQSPSSLSASVGDRVTITCSASSSVTYMYWYQQKPGKAPKLLIYDTSNLASGVPSRFSGSGSGTDYTFTISSLQPEDIATYYCQQWSSHIFTFGQGTKVEIKRTVAEPQVYTLPPSRDELTKNQVSLSCAVKGFYPSDIAVEWESNGQPENNYKTTPPVLDSDGSFFLVSKLTVDKSRWQQGNVFSCSVMHEALHNHYTQKSLSLSGEC
chain: EPKSSDKTHTCPPCPAPELLGGPSVFLFPPKPKDTLMISRTPEVTCVVVDVSHEDPEVKFNWYVDGVEVHNAKTKPREEQYNSTYRVVSVLTVLHQDWLNGKEYKCKVSNKALPAPIEKTISKAKGQPREPQVYTLPPPSEELALNELVTLTCLVKGFYPSDIAVEWLQGSQELPREKYLTWAPVLDSDGSFFLYSILRVAAEDWKKGDTFSCSVMHEALHNHYTQKSLDRSPGK
notes: hu425 Fv; one Fab arm only; also called KiH2 variant 1
B6: one-armed anti-EGFR SEED antibody with KiH2 CH3 domain-exchanged Fab, Variant 2 (antibody)
heavy: QVQLVQSGAEVKKPGASVKVSCKASGYTFTSHWMHWVRQAPGQGLEWIGEFNPSNGRTNYNEKFKSKATMTVDTSTNTAYMELSSLRSEDTAVYYCASRDYDYDGRYFDYWGQGTLVTVSSASTKGEPQVYTLPPSRDELTKNQVSLSCAVKGFYPSDIAVEWESNGQPENNYKTTPPVLDSDGSFFLVSKLTVDKSRWQQGNVFSCSVMHEALHNHYTQKSLSLSKSCDKTHTCPPCPAPELLGGPSVFLFPPKPKDTLMISRTPEVTCVVVDVSHEDPEVKFNWYVDGVEVHNAKTKPREEQYNSTYRVVSVLTVLHQDWLNGKEYKCKVSNKALPAPIEKTISKAKGQPFRPEVHLLPPSREEMTKNQVSLTCLARGFYPKDIAVEWESNGQPENNYKTTPSRQEPSQGTTTFAVTSKLTVDKSRWQQGNVFSCSVMHEALHNHYTQKTISLSPGK
light: DIQMTQSPSSLSASVGDRVTITCSASSSVTYMYWYQQKPGKAPKLLIYDTSNLASGVPSRFSGSGSGTDYTFTISSLQPEDIATYYCQQWSSHIFTFGQGTKVEIKRTVAEPQVYTLPPSRDELTKNQVSLWCLVKGFYPSDIAVEWESNGQPENNYKTTPPVLDSDGSFFLYSKLTVDKSRWQQGNVFSCSVMHEALHNHYTQKSLSLSGEC
chain: EPKSSDKTHTCPPCPAPELLGGPSVFLFPPKPKDTLMISRTPEVTCVVVDVSHEDPEVKFNWYVDGVEVHNAKTKPREEQYNSTYRVVSVLTVLHQDWLNGKEYKCKVSNKALPAPIEKTISKAKGQPREPQVYTLPPPSEELALNELVTLTCLVKGFYPSDIAVEWLQGSQELPREKYLTWAPVLDSDGSFFLYSILRVAAEDWKKGDTFSCSVMHEALHNHYTQKSLDRSPGK
notes: hu425 Fv; one Fab arm only; also called KiH2 variant 2
B7: one-armed domain-exchanged KiH antibody with Charge pair CH3 domains in the Fab, Variant 1 (antibody)
heavy: not shown
light: DIQMTQSPSSLSASVGDRVTITCSASSSVTYMYWYQQKPGKAPKLLIYDTSNLASGVPSRFSGSGSGTDYTFTISSLQPEDIATYYCQQWSSHIFTFGQGTKVEIKRTVAEPQVYTLPPSREEMTKNQVSLTCLVKGFYPSDIAVEWESNGQPENNYDTTPPVLDSDGSFFLYSDLTVDKSRWQQGNVFSCSVMHEALHNHYTQKSLSLSGEC
chain: not shown
notes: hu425 Fv; one Fab arm only; also called one-armed KiH antibody, Charge pair variant 1
B8: one-armed domain-exchanged KiH antibody with Azymetric CH3 domains in the Fab, Variant 1 (antibody)
heavy: not shown
light: DIQMTQSPSSLSASVGDRVTITCSASSSVTYMYWYQQKPGKAPKLLIYDTSNLASGVPSRFSGSGSGTDYTFTISSLQPEDIATYYCQQWSSHIFTFGQGTKVEIKRTVAEPQVYVLPPSREEMTKNQVSLLCLVKGFYPSDIAVEWESNGQPENNYLTWPPVLDSDGSFFLYSKLTVDKSRWQQGNVFSCSVMHEALHNHYTQKSLSLSGEC
chain: not shown
notes: hu425 Fv; one Fab arm only; also called one-armed KiH antibody, CH3-Azymetric variant 1

The first experiment concerns the target T1, EGFR (on EGFR-expressing A431 cells) (UniProt P00533 25-1210, limits assumed).
T1 construct: whole, on cells; A431 is a human cell line; also called EGFR-positive cells; EGFR-overexpressing A431 cells
Briefly: flow cytometry on A431 cells. In general terms: A flow cytometer gives signals particle by particle.
As for B1, the binding result is recorded as “binds”. As to B2, the binding result is listed as “binds”. As to B3, the binding result was “binds”. The same measure, in the same setting: with B4 the entry was “binds”; with B5, “binds”; with B6, “binds”.

In another experiment the target is T1, EGFR (on EGFR-expressing A431 cells). Kind of experiment: flow cytometry on EGFR-positive A431 cells.
In the case of B7, the binding result is “binds”. On to B8, for which the binding result is reported as “binds”.
